± gives the uncertainty stated by the source.
Test: self-splicing fitness, log relative to wild type (ln ratio); higher = more splicing; Tetrahymena group I intron in knt gene, E. coli kanamycin selection, DiMSum; sequences stand for … in CUCUCU…GGAGGGAAAAGUUAUCAGGCAUGCACCUGGUAGCUAGUCUUUAAACCAAUAGAUUGCAUCGGUUUAAAAGGCAAGACCGUCAAAUUGCGGGAAAGGGGUCAACAGCCGUUCAGUACCAAGUCUCAGGGGAAACUUUGAGAUGGCCUUGCAAAGGGUAUGGUAAUAAGCUGACGGACAUGGUCCUAACCACGCAGCCAAGUCCUAAGUCAACAGAUCUUCUGUUGAUAUGGAUGCAGUUCACAGACUAAAUGUCGGUCGGGGAAGAUGUAUUCUUCUCAUAAGAUAUAGUCGGACCUCUCCUUAAUGGGAGCUAGCGGAUGAAGUGAUGCAACACUGGAGCCGCUGGGAACUAAUUUGUAUGCGAAAGUAUAUUGAUUAGUUUUGGAGUACUCGUGGUCG
Procedure, shortened: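 DiMSum derived fitness as the error-weighted combination of fold changes across replicates, kanamycin versus no kanamycin, normalised to wild type. E. coli BL21(DE3) held the library, which randomised all eight P1ex-region intron nucleotides within the knt kanamycin-resistance gene on pET-22b(+). Six replicate transformations grew overnight at 37°C or 30°C on LB agar with or without 25 μg/mL kanamycin, also containing 100 μg/mL carbenicillin, 50 μM IPTG and 0.2% rhamnose, and pooled colonies were amplicon-sequenced on an Illumina HiSeq 2500.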

| Sequence | self-splicing fitness (ln) (30 °C) | self-splicing fitness (ln) (37 °C) |
| --- | --- | --- |
| UUUUAGCAAUAUUACGGUAU | -2.87 ± 0.32 | -3.11 ± 0.47 |
| GUUUAGCAAUAUUACGGCGC | 0.141 ± 0.16 | 0.337 ± 0.17 |
| ACAAAGCAAUAUUACGUAUC | -2.27 ± 0.072 | -1.69 ± 0.099 |
| GCGAAGCAAUAUUACGCGGA | – | -1.26 ± 0.36 |
| AGAUAGCAAUAUUACGCUUG | -2.48 ± 0.12 | -0.783 ± 0.13 |
| CCGGAGCAAUAUUACGUAAC | -2.38 ± 0.38 | -1.45 ± 0.43 |
| CGGAAGCAAUAUUACGUCGU | – | -2.21 ± 0.36 |
| GUGCAGCAAUAUUACGCCCG | -1.69 ± 0.36 | -1.51 ± 0.37 |
| GCGGAGCAAUAUUACGUACG | -2.97 ± 0.28 | -2.71 ± 0.44 |
| ACGUAGCAAUAUUACGGAAC | -2.09 ± 0.24 | -2.14 ± 0.26 |
| AUCAAGCAAUAUUACGAAGU | -2.52 ± 0.11 | -1.22 ± 0.12 |
| UGACAGCAAUAUUACGAAGU | -3.26 ± 0.2 | -2.91 ± 0.28 |
| GACUAGCAAUAUUACGACGA | -0.416 ± 0.074 | 0.00653 ± 0.078 |
| UUGCAGCAAUAUUACGGACU | -1.3 ± 0.18 | -1.7 ± 0.29 |
| ACCAAGCAAUAUUACGAGCC | -3.61 ± 0.2 | -1.08 ± 0.15 |
| UCCUAGCAAUAUUACGGCGA | -0.128 ± 0.092 | 0.153 ± 0.1 |
| UGGUAGCAAUAUUACGGGUC | -3.15 ± 0.4 | -2.9 ± 0.47 |
| AGCUAGCAAUAUUACGUGCU | -3.87 ± 0.35 | -2.44 ± 0.23 |
| CAGGAGCAAUAUUACGUCAG | -3.88 ± 0.4 | -1.17 ± 0.28 |
| AGCAAGCAAUAUUACGCAAU | -2.54 ± 0.15 | -1.41 ± 0.13 |
| UCUUAGCAAUAUUACGGUUC | -3.68 ± 0.28 | -2.29 ± 0.23 |
| GUUGAGCAAUAUUACGUUCU | -1.82 ± 0.14 | -1.2 ± 0.13 |
| CUUUAGCAAUAUUACGAACU | -3.28 ± 0.24 | -2.54 ± 0.19 |
| UUCUAGCAAUAUUACGUUGA | -3.03 ± 0.22 | -1.47 ± 0.18 |

| Sequence | self-splicing fitness (ln) (30 °C) | self-splicing fitness (ln) (37 °C) |
| --- | --- | --- |
| CUAAAGCAAUAUUACGAAAA | -3.34 ± 0.41 | -2.19 ± 0.35 |
| GCACAGCAAUAUUACGGGAA | -1.47 ± 0.15 | -1.42 ± 0.13 |
| GAUUAGCAAUAUUACGCUUC | -3.55 ± 0.34 | -1.88 ± 0.29 |
| AUACAGCAAUAUUACGCCAC | -3.08 ± 0.24 | -3.12 ± 0.32 |
| GAUCAGCAAUAUUACGUUAC | -2.16 ± 0.097 | -1.19 ± 0.11 |
| AAGAAGCAAUAUUACGCUUG | -1.23 ± 0.11 | -0.951 ± 0.14 |
| AAGCAGCAAUAUUACGCUAG | -2.56 ± 0.12 | -2.84 ± 0.14 |
| UCUGAGCAAUAUUACGUGGU | -2.58 ± 0.13 | -2.21 ± 0.15 |
| UAUAAGCAAUAUUACGUGAA | 0.0802 ± 0.12 | -0.933 ± 0.15 |
| AUCAAGCAAUAUUACGUCAA | -3.14 ± 0.2 | -0.928 ± 0.15 |
| AUGAAGCAAUAUUACGGUUC | -1.29 ± 0.099 | -1.8 ± 0.15 |
| GCCCAGCAAUAUUACGUGCC | -3.75 ± 0.32 | -3.18 ± 0.2 |
| AUGAAGCAAUAUUACGCCUC | -0.0224 ± 0.2 | -1.19 ± 0.33 |
| GCAAAGCAAUAUUACGACGU | 0.0721 ± 0.072 | 0.116 ± 0.096 |
| GAUUAGCAAUAUUACGCGCC | -1.37 ± 0.38 | -1.2 ± 0.34 |
| AGGAAGCAAUAUUACGGUGG | -3.94 ± 0.22 | -1.64 ± 0.28 |
| CGCGAGCAAUAUUACGCACG | – | -2.14 ± 0.46 |
| CAUUAGCAAUAUUACGCCUU | -3.03 ± 0.36 | -1.84 ± 0.21 |
| GGACAGCAAUAUUACGCAUC | -3 ± 0.12 | -0.76 ± 0.13 |
| CUCCAGCAAUAUUACGGCAA | -3.55 ± 0.17 | -2.71 ± 0.16 |
| CCAGAGCAAUAUUACGAUGC | -3.48 ± 0.34 | -2.78 ± 0.29 |
| CUCUAGCAAUAUUACGAUUG | -1.48 ± 0.091 | -1.24 ± 0.12 |
| UCAAAGCAAUAUUACGGCGU | -0.917 ± 0.065 | -0.201 ± 0.086 |
| AUGUAGCAAUAUUACGUGUU | -2.4 ± 0.12 | -1.08 ± 0.14 |
